Bridges are numbered along the chain shown (N, C = ends). [ ]: non-standard residue; d: D form. Trp(7-Me) = Cc1cccc2c(C[C@H](N)C(=O)O)c[nH]c12; 2Nal = N[C@@H](Cc1ccc2ccccc2c1)C(=O)O; AEF = NCCOc1ccc(C[C@H](N)C(=O)O)cc1; αMeF = C[C@](N)(Cc1ccccc1)C(=O)O; Pen = CC(C)(S)[C@H](N)C(=O)O; αMeK = C[C@](N)(CCCCN)C(=O)O; Ac5c = NC1(C(=O)O)CCCC1; Thp = NC1(C(=O)O)CCOCC1
T1: human IL-23R (interleukin-23 receptor) (human, UniProt Q5VWK5 24-629)
T1 sequence (looked up): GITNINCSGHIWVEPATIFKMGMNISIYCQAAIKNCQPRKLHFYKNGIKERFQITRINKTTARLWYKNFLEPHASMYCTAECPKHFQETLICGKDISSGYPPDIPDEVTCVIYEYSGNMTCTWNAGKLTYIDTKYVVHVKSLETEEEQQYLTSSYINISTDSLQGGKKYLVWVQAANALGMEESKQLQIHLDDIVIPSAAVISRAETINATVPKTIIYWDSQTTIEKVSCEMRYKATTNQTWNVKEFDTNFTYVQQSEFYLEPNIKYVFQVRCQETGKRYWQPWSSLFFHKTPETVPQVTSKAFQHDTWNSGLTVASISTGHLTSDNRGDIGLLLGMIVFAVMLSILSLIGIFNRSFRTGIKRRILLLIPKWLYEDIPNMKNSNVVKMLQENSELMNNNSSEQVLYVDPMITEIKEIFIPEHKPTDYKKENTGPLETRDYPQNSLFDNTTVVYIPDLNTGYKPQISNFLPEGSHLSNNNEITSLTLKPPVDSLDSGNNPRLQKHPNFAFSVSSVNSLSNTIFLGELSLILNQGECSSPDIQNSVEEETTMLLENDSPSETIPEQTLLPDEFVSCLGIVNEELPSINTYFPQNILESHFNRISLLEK

B1: Compound No. 99 (peptide)
peptide: Ac-[dR][Pen]NT[Trp(7-Me)]Q[Pen][AEF][2Nal][Ac5c]EN[Thp]-NH2
modifications: disulfide 2-7
SMILES: CC(=O)N[C@H](CCCNC(=N)N)C(=O)N[C@@H]1C(=O)N[C@@H](CC(N)=O)C(=O)N[C@@H]([C@@H](C)O)C(=O)N[C@@H](Cc2c[nH]c3c(C)cccc23)C(=O)N[C@@H](CCC(N)=O)C(=O)N[C@H](C(=O)N[C@@H](Cc2ccc(OCCN)cc2)C(=O)N[C@@H](Cc2ccc3ccccc3c2)C(=O)NC2(C(=O)N[C@@H](CCC(=O)O)C(=O)N[C@@H](CC(N)=O)C(=O)NC3(C(N)=O)CCOCC3)CCCC2)C(C)(C)SSC1(C)C
B2: Compound No. 98 (peptide)
peptide: Ac-[Pen]NTWK(Ac)[Pen][AEF][2Nal][αMeK]K(Ac)N[αMeF]-NH2
modifications: disulfide 1-6
SMILES: CC(=O)NCCCC[C@@H]1NC(=O)[C@H](Cc2c[nH]c3ccccc23)NC(=O)[C@H]([C@@H](C)O)NC(=O)[C@H](CC(N)=O)NC(=O)[C@@H](NC(C)=O)C(C)(C)SSC(C)(C)[C@@H](C(=O)N[C@@H](Cc2ccc(OCCN)cc2)C(=O)N[C@@H](Cc2ccc3ccccc3c2)C(=O)N[C@@](C)(CCCCN)C(=O)N[C@@H](CCCCNC(C)=O)C(=O)N[C@@H](CC(N)=O)C(=O)N[C@@](C)(Cc2ccccc2)C(N)=O)NC1=O
B3: Compound No. 101 (peptide)
peptide: Ac-[dR][Pen]NT[Trp(7-Me)]K(Ac)[Pen][AEF][2Nal][Ac5c]EN[Thp]-NH2
modifications: disulfide 2-7
SMILES: CC(=O)NCCCC[C@@H]1NC(=O)[C@H](Cc2c[nH]c3c(C)cccc23)NC(=O)[C@H]([C@@H](C)O)NC(=O)[C@H](CC(N)=O)NC(=O)[C@@H](NC(=O)[C@@H](CCCNC(=N)N)NC(C)=O)C(C)(C)SSC(C)(C)[C@@H](C(=O)N[C@@H](Cc2ccc(OCCN)cc2)C(=O)N[C@@H](Cc2ccc3ccccc3c2)C(=O)NC2(C(=O)N[C@@H](CCC(=O)O)C(=O)N[C@@H](CC(N)=O)C(=O)NC3(C(N)=O)CCOCC3)CCCC2)NC1=O
B4: Compound No. 102 (peptide)
peptide: Ac-[dR][Pen]NTWK(Ac)[Pen][AEF][2Nal][Ac5c]EN[αMeF]-NH2
modifications: disulfide 2-7
SMILES: CC(=O)NCCCC[C@@H]1NC(=O)[C@H](Cc2c[nH]c3ccccc23)NC(=O)[C@H]([C@@H](C)O)NC(=O)[C@H](CC(N)=O)NC(=O)[C@@H](NC(=O)[C@@H](CCCNC(=N)N)NC(C)=O)C(C)(C)SSC(C)(C)[C@@H](C(=O)N[C@@H](Cc2ccc(OCCN)cc2)C(=O)N[C@@H](Cc2ccc3ccccc3c2)C(=O)NC2(C(=O)N[C@@H](CCC(=O)O)C(=O)N[C@@H](CC(N)=O)C(=O)N[C@@](C)(Cc3ccccc3)C(N)=O)CCCC2)NC1=O
B5: Compound No. 100 (peptide)
peptide: Ac-[Pen]NT[Trp(7-Me)]K(Ac)[Pen][AEF][2Nal][αMeK]K(Ac)N[αMeF][dY]-NH2
modifications: disulfide 1-6
SMILES: CC(=O)NCCCC[C@@H]1NC(=O)[C@H](Cc2c[nH]c3c(C)cccc23)NC(=O)[C@H]([C@@H](C)O)NC(=O)[C@H](CC(N)=O)NC(=O)[C@@H](NC(C)=O)C(C)(C)SSC(C)(C)[C@@H](C(=O)N[C@@H](Cc2ccc(OCCN)cc2)C(=O)N[C@@H](Cc2ccc3ccccc3c2)C(=O)N[C@@](C)(CCCCN)C(=O)N[C@@H](CCCCNC(C)=O)C(=O)N[C@@H](CC(N)=O)C(=O)N[C@@](C)(Cc2ccccc2)C(=O)N[C@H](Cc2ccc(O)cc2)C(N)=O)NC1=O

The binders below were run against T1, human IL-23R (interleukin-23 receptor) (assay: cell-based or functional assay).

Row | Binder | PBMC pSTAT3 IC50 (nM)
1 | B1 | 4.2
2 | B2 | 15
3 | B3 | 0.74
4 | B4 | 8.4
5 | B5 | 21

— patent US20220402983A1 (Janssen / Centocor, published 2022)
